Measured values reported in PMC12041282.
pKd: −log10 of the molar value.

Target: ectodomain of the SFTSV Gn glycoprotein (amino acids 20-453), Gn-his (SFTSV)
Assay: SPR

Recombinant human LRP1 CLII-Fc (Fc fusion)
pKd: 7.77
